Measured values from patent publication US20140142040A1.
Like-named read-outs stand apart in the source and are kept apart here.

Tests used:
[1] = molecular target: T1, human activated protein C (human), P04070
T1 chain 1: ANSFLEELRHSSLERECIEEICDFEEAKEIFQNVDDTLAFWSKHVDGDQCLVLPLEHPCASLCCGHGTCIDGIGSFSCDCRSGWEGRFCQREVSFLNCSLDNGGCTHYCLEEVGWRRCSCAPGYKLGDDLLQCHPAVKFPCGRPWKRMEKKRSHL
T1 chain 2: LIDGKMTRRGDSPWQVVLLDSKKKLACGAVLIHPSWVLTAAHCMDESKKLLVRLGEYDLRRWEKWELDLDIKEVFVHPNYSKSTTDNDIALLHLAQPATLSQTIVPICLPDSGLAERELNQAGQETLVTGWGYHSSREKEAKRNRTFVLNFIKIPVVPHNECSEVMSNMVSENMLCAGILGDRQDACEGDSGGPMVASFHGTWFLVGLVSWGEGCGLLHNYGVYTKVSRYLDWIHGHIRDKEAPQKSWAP

[2] = molecular target: human factor XIa (human), P03951
[3] = molecular target: T2, human plasmin (human), P00747
T2 chain: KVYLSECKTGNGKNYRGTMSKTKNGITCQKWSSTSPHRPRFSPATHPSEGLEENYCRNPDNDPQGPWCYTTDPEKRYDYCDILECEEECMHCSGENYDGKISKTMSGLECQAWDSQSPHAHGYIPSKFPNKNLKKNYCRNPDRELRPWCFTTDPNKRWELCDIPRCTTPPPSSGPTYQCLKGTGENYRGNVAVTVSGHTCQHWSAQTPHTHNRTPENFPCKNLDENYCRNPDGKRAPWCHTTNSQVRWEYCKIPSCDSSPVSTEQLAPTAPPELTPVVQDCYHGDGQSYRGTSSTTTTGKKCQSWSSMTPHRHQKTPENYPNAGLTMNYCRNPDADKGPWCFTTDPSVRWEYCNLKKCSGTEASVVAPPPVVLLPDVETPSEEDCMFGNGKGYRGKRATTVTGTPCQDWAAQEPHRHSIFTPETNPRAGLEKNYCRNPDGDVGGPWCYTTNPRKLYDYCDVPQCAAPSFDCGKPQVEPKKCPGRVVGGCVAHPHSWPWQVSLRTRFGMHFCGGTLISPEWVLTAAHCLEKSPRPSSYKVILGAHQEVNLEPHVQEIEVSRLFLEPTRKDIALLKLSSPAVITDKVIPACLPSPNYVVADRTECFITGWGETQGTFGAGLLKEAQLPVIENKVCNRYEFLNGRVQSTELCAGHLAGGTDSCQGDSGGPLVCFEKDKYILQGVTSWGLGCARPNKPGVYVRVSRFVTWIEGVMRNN

[4] = molecular target: T1, human activated protein C (human), …; assay: cell-based or functional assay
[5] = molecular target: T1, human activated protein C (human), …
[6] = molecular target: T1, human activated protein C (human), …

B1: DrKIn-I (Daboia russelii Kunitz Inhibitor-I), A8Y7N4 25-90 (protein)
chain: QDRPKFCNLAPESGRCRGHLRRIYYNPDSNKCEVFFYGGCGGNDNNFETRKKCRQTCGAPRKGRPT
modifications: not checked
Ki [1]: 0.053 nM | Ki [2]: 1.33 nM | fold of Ki against the Ki for APC inhibition [2]: > 25 fold | Ki [3]: 1.56 nM | fold of Ki against the Ki for APC inhibition [3]: > 25 fold | fold reduction of the IC50 by heparin [4]: 25 fold | Kd [5]: 2.6 nM | koff [5]: 0.034 s⁻¹ | kon [5]: 1.3e+07 M⁻¹ s⁻¹ | kon [6]: 1.7e+07 M⁻¹ s⁻¹
